In patent publication CN115521378A (NANJING JISHENG AOMA BIOLOGICAL PHARMACEUTICAL CO LTD, dated 2022):

Molecular target: T1, PD-L1蛋白 (human, UniProt Q9NZQ7 19-238, limits assumed)
T1 construct: also called 人PD-L1蛋白; CD274
Experiment: competition ELISA: PD-L1 coated, biotinylated PD-1 at 1 ug/mL as competitor, HRP-streptavidin read-out

T1 sequence (Q9NZQ7 19-238 limits assumed): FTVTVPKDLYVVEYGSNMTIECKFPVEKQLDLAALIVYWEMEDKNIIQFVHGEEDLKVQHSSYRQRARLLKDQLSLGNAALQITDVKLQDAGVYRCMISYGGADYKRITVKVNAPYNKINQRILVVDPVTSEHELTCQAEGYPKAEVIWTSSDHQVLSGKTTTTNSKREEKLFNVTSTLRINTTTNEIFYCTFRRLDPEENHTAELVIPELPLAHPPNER

IC50: 1.23 nM
B1: 13H6D3 (antibody, V domains shown)
VH: QVQLQQPGADLVKPGASVKLSCKASGYTFTSNWMHWMKQRPGQGLDWIGMIHPNSAIKYNEKFKSRASLTADKSSSTAYMQLSSLTSEDSAVYYCARSYYGSSPYFFDYWGQGTTLTVSS
VL: DIQMTQTTSSLSASLGDRVTISCRASQDISKYLNWYQQKPDGTVKFLIYYTSRLHSGVPARFSGSGSGTDYFLTISNLEQEDVATYFCQQGDTLPWTFGGGTKLEIK
notes: Only variable domains are tied to the name; also called 克隆 13H6D3
